# According to publication doi:10.1101/634907:
# B1: CLASP2 (endogenous, HeLa cell extracts), O75122-3 1-1515 (natural protein)
# chain: MEPRSMEYFCAQVQQKDVGGRLQVGQELLLYLGAPGAISDLEEDLGRLGKTVDALTGWVGSSNYRVSLMGLEILSAFVDRLSTRFKSYVAMVIVALIDRMGDAKDKVRDEAQTLILKLMDQVAPPMYIWEQLASGFKHKNFRSREGVCLCLIETLNIFGAQPLVISKLIPHLCILFGDSNSQVRDAAILAIVEIYRHVGEKVRMDLYKRGIPPARLEMIFAKFDEVQSSGGMILSVCKDKSFDDEESVDGNRPSSAASAFKVPAPKTSGNPANSARKPGSAGGPKVGAGASKEGGAGAVDEDDFIKAFTDVPSIQIYSSRELEETLNKIREILSDDKHDWDQRANALKKIRSLLVAGAAQYDCFFQHLRLLDGALKLSAKDLRSQVVREACITVAHLSTVLGNKFDHGAEAIVPTLFNLVPNSAKVMATSGCAAIRFIIRHTHVPRLIPLITSNCTSKSVPVRRRSFEFLDLLLQEWQTHSLERHAAVLVETIKKGIHDADAEARVEARKTYMGLRNHFPGEAETLYNSLEPSYQKSLQTYLKSSGSVASLPQSDRSSSSSQESLNRPFSSKWSTANPSTVAGRVSAGSSKASSLPGSLQRSRSDIDVNAAAGAKAHHAAGQSVRSGRLGAGALNAGSYASLEDTSDKLDGTASEDGRVRAKLSAPLAGMGNAKADSRGRSRTKMVSQSQPGSRSGSPGRVLTTTALSTVSSGVQRVLVNSASAQKRSKIPRSQGCSREASPSRLSVARSSRIPRPSVSQGCSREASRESSRDTSPVRSFQPLGPGYGISQSSRLSSSVSAMRVLNTGSDVEEAVADALLLGDIRTKKKPARRRYESYGMHSDDDANSDASSACSERSYSSRNGSIPTYMRQTEDVAEVLNRCASSNWSERKEGLLGLQNLLKNQRTLSRVELKRLCEIFTRMFADPHGKRVFSMFLETLVDFIQVHKDDLQDWLFVLLTQLLKKMGADLLGSVQAKVQKALDVTRESFPNDLQFNILMRFTVDQTQTPSLKVKVAILKYIETLAKQMDPGDFINSSETRLAVSRVITWTTEPKSSDVRKAAQSVLISLFELNTPEFTMLLGALPKTFQDGATKLLHNHLRNTGNGTQSSMGSPLTRPTPRSPANWSSPLTSPTNTSQNTLSPSAFDYDTENMNSEDIYSSLRGVTEAIQNFSFRSQEDMNEPLKRDSKKDDGDSMCGGPGMSDPRAGGDATDSSQTALDNKASLLHSMPTHSSPRSRDYNPYNYSDSISPFNKSALKEAMFDDDADQFPDDLSLDHSDLVAELLKELSNHNERVEERKIALYELMKLTQEESFSVWDEHFKTILLLLLETLGDKEPTIRALALKVLREILRHQPARFKNYAELTVMKTLEAHKDPHKEVVRSAEEAASVLATSISPEQCIKVLCPIIQTADYPINLAAIKMQTKVIERVSKETLNLLLPEIMPGLIQGYDNSESSVRKACVFCLVAVHAVIGDELKPHLSQLTGSKMKLLNLYIKRAQTGSGGADPTTDVSGQS
# Experiments:
# [1] = target: recombinant human CLASP2 C-terminal fragment (CLASP2-1213-1515) (human); assay: SEC + other: density gradient centrifugation
# [2] = target: T1, CLASP2 (endogenous, HeLa cell extracts) (human (endogenous in HeLa)), O75122; assay: SEC + other: density gradient centrifugation; conditions: remark: other sources report otherwise
# T1 chain: B1 chain
molecule,measurement,setting,value
recombinant human CLASP2 C-terminal fragment (CLASP2-1213-1515) (domain or fragment),stoichiometry N,[1],2
B1,stoichiometry N,[2],2
